Laboratory results published in the supplement of paper PMC12042874.
± gives the uncertainty stated by the source.

Experiment: amyloid nucleation score (Sup35N fusion, yeast selection) (log enrichment); library NNK3; higher = more nucleation; inactive = no reads after selection
Summary of the method: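 DiMSum was used to calculate nucleation scores as log enrichment of output over input reads, centred on the mode score of non-aggregating sequences. Sequences with fewer than 100 input reads were not scored. Input and output came from Illumina sequencing of plasmid inserts in psi-negative yeast expressing peptides of 20 random codons fused to Sup35N, induced 24 hours with 100 μM copper sulfate and then grown 7 days at 30°C on medium lacking adenine and uracil.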

Substance | amyloid nucleation score
FVVSLQYMCQSRYISPCTPI | inactive
SVRHSWTMSVFFSDRNALAN | inactive
SVCMVFYPVEREKEDQKSVE | inactive
DDDHKIKLLLSGGL | inactive
IEGEYLVASAWRFLQSKHAH | inactive
IFCAPRAEVSGSYYRGNVSV | inactive
CVMGVG | 0.312 ± 0.31
SLTVKFSLLKGESQVDHFVS | -0.158 ± 0.85
LDFWRESVGAKE | inactive
WGFRRT | inactive
LVNCISIVLFPECNKSLLHR | 2.35 ± 0.077
LSLLVTLG | inactive
GPPAEASHKLWPASPRDRCP | inactive
LRRTIYFTDDRCLWLDFAPL | 0.272 ± 0.43
SNKSHVCYFSIEFVLISGLS | inactive
NYGYRRPVMILPVHR | inactive
LTICFVSYVTVGDAGTMTPR | 1.62 ± 0.099
GNLSFTPGITRKKSVLEYRH | inactive
HDHFWLYCMCNRTSGYLESF | inactive
SYQVCSKQTPHFSLSFIMFV | -0.488 ± 0.96
YPKACVI | inactive
FQFNILNSVSGLCICYDSGH | 3.41 ± 0.081
LCSFPKH | inactive
VKAVLY | inactive

Substance | amyloid nucleation score
LQSFPYQYIITR | inactive
PGKGKELSRASGSRATV | inactive
KGTSR | inactive
NRISMFLNRT | inactive
LRIERQSAFSCILDM | inactive
RRRLG | inactive
KWVFYYDRRVDSLLARMFLC | inactive
VIARDDINCVRDGGQGLQIS | inactive
MRELQENVNDDS | inactive
PPPCKYLPAEVGLLFKSSLG | inactive
KCNRFRG | inactive
NCMFWGCVTLRADFVRTINR | 1.5 ± 0.14
NVWQFRFANRSCWFRLDIVC | inactive
GKLCYYSVYWESALNQPRSS | inactive
VLDLCDVY | inactive
RMGIASIYAIVLQPMIRLWL | inactive
LYSLFVMFLSVKVWFIVFM | inactive
SSFGFKAK | inactive
GYERSDKKLDKKVL | inactive
ICSGTSH | -0.268 ± 0.6
YWGIDHRIAGYIC | inactive
VLSVWDHLYLRNSSCAPTYR | -0.641 ± 1.4
SFWCRVSHLSRDTFMDVRFM | inactive
SPHLLDWSKIAFLVSHMPHS | inactive

Substance | amyloid nucleation score
RNSTMIYTQ | 2.24 ± 0.093
LWHGIICFCFLAYSWGKSAV | inactive
MSVTITGALQVVTKVPANMI | 0.593 ± 0.2
YVTGVLDC | inactive
ISDTSCHIDTLRFLGRVRFL | inactive
ILVSFVVGTNLLWGDASVRW | 0.236 ± 0.48
YLGEHRVVVRNSMSPQPWLS | inactive
CLPSFRGFTTNIMGLIRSRV | inactive
HKWGCGL | -0.539 ± 1.5
LKSMLLSMRSIIEYCQQMVG | inactive
NFFITTDPPGFR | inactive
ADLPVIHNNKRLVVVWHWLN | inactive
TFLLCVVDGCCICRRGSCAS | 2.2 ± 0.096
VYPCKIFCVFVVAVILFFSL | inactive
VFESCEYSRQVVGNFRDEM | inactive
REASVECH | inactive
FVDLIRLCMCFVRMSQSLRT | inactive
PRFMKVRRWYSNLM | inactive
VICFFTTNAEHLQFLV | inactive
SSSRCITLLVSIMVPISATC | inactive
KQLLGGPTVSFNVVYSVALK | 1.98 ± 0.088
SIFCGCLVLLTGNYLLICIS | 1.13 ± 0.17
IYTCSTRSSSFYRRMIRSFL | inactive
GASMLGAIKGYSTSERISLD | 0.175 ± 0.45

Substance | amyloid nucleation score
GIVYKRVYRMWVHVAEAESR | inactive
CKTHQVSYAYLC | inactive
FHSQYEGAEERSPRNVLMAR | inactive
KRANSE | 1.11 ± 0.1
RSVSDYSSNCRAHCLVDDDT | inactive
WIRSNATFNATGVKFSSTCH | inactive
HFVTDDNGGICDVDNV | inactive
GISWILSVGGCTSRAWLWSW | inactive
CRDSWFWSV | inactive
VATKQVVQGLMSPNN | inactive
VYHLQLLVGVRGLNPRCAQE | inactive
MRLVICTAHWQSFYRFYIIL | inactive
LSLWRWSVHS | inactive
WYMGFSAVLVCFRLSRPVT | inactive
MLDCYWPFPNISIRIWTEWV | inactive
YVVVLMSLHWRNWGALRRTC | inactive
KKVLN | inactive
DSRFEWLLTLYYRFYLHNGR | inactive
FANSY | inactive
VNEIRDILLVSYSKFRAWGQ | 1.2 ± 0.13
SLGTLISLPYTSA | inactive
NGTALLKVTLAQYVGIVTLF | inactive
SLIDHYLSDLSKKS | inactive
FPGVLSLRYYLLRMRTQ | inactive

Substance | amyloid nucleation score
NQLYSWWRFYGLNS | inactive
RASLEYVGKCWWDGPYIEGV | inactive
IWFKWNRCNVRGMTWTDFYA | 1.17 ± 0.082
RGIPDLVIY | inactive
SAVYIDA | inactive
WVWMTETVLWFRYKQVACGW | inactive
WHTSSQVSEGLEHAYVCKFE | inactive
ERVNVVR | inactive
LVYPQIYVQV | inactive
HRYYYFF | 1.83 ± 0.093
MSLWCTITGECKGDGWY | inactive
DVGSR | inactive
NVFNFRVDSSDHPPVSAWWD | inactive
YGLVGQFSTVGTKQALLLGT | inactive
VNLEDGSGDSCKDNCNGERF | -0.821 ± 0.84
CTSTAVLGSVLCK | inactive
DLAYIGVFLIMFCFTSVDSM | -0.225 ± 0.58
HCDLGESFTALYSFHAVLML | inactive
MYRQGGCVIHWSNVG | inactive
LPDEEHVRYVCYLYDM | inactive
YYMRDCSYIHEFGTGVASDR | inactive
LLHFVHNSSSMLVRRREETG | 0.262 ± 0.39
HKMDWYIGLFRLMHTVAVLM | inactive
